The source of these data is PMC9361823, “The α- and β-Subunit Boundary at the Stem of the Mushroom-Like α3β3-Type Oxygenase Component of Rieske Non-Heme Iron Oxygenases Is the Rieske-Type Ferredoxin-Binding Site” (Applied and Environmental Microbiology, 2022).

This data set concerns the molecule itself. Kind of data set: SEC; α (His6) and untagged β co-expressed in E. coli and co-purified by metal chelation and gel filtration (Superdex200; 20 mM Tris-HCl, 0.2 M NaCl, 10% glycerol, pH 7.4); 150- to 200-kDa complex in solution (Fig. S1; the text does not say how the size was estimated).

B1: α-subunit of CumDO-O (CumA1) (natural protein)
chain: not shown
notes: CumA1, α-subunit of CumDO-O (cumene dioxygenase oxygenase component); also called 51-kDa α-subunit; not shown: His6, C-terminal, kept
With B1, the binding result is “binds”.

B2: β-subunit of CumDO-O (CumA2) (natural protein, Pseudomonas fluorescens IP01, UniProt Q51744 1-186, looked up)
chain: MTSADLTKPIEWPEMPVSLELQNAVEQFYYREAQLLDYQNYEAWLALLTQDIQYWMPIRTTHTSRNKAMEYVPPGGNAHFDETYESMRARIRARVSGLNWTEDPPSRSRHIVSNVIVRETESAGTLEVSSAFLCYRNRLERMTDIYVGERRDILLRVSDGLGFKIAKRTILLDQSTITANNLSQFF
notes: CumA2, β-subunit of CumDO-O (cumene dioxygenase oxygenase component), not tagged; also called 21-kDa β-subunit
In the case of B2, the binding result was “binds”.
